*1 amine or outer side, *2 acyl side, *3 side chain or, on linkers, in order; H or OH if unused. Where no end group is shown, it is not given here. Side-chain parts run from the residue outwards. [ ]: non-standard residue; d: D form. The star is where a group is joined. γGlu = O=C(O)[C@H](CCC(=O)[*:2])N[*:1]; Palmitoyl = CCCCCCCCCCCCCCCC(=O)*; Decanoyl = CCCCCCCCCC(=O)*; Aib = CC(C)(N)C(=O)O
B1: Compound no. 6 (peptide)
peptide: Palmitoyl-H[Aib]DGTFISDYSTILD[Aib]LAARDFINWLIQTKITK-OH
SMILES: CCCCCCCCCCCCCCCC(=O)N[C@@H](Cc1c[nH]cn1)C(=O)NC(C)(C)C(=O)N[C@@H](CC(=O)O)C(=O)NCC(=O)N[C@H](C(=O)N[C@@H](Cc1ccccc1)C(=O)N[C@H](C(=O)N[C@@H](CO)C(=O)N[C@@H](CC(=O)O)C(=O)N[C@@H](Cc1ccc(O)cc1)C(=O)N[C@@H](CO)C(=O)N[C@H](C(=O)N[C@H](C(=O)N[C@@H](CC(C)C)C(=O)N[C@@H](CC(=O)O)C(=O)NC(C)(C)C(=O)N[C@@H](CC(C)C)C(=O)N[C@@H](C)C(=O)N[C@@H](C)C(=O)N[C@@H](CCCNC(=N)N)C(=O)N[C@@H](CC(=O)O)C(=O)N[C@@H](Cc1ccccc1)C(=O)N[C@H](C(=O)N[C@@H](CC(N)=O)C(=O)N[C@@H](Cc1c[nH]c2ccccc12)C(=O)N[C@@H](CC(C)C)C(=O)N[C@H](C(=O)N[C@@H](CCC(N)=O)C(=O)N[C@H](C(=O)N[C@@H](CCCCN)C(=O)N[C@H](C(=O)N[C@H](C(=O)N[C@@H](CCCCN)C(=O)O)[C@@H](C)O)[C@@H](C)CC)[C@@H](C)O)[C@@H](C)CC)[C@@H](C)CC)[C@@H](C)CC)[C@@H](C)O)[C@@H](C)CC)[C@@H](C)O
B2: Compound no. 31 (peptide)
peptide: H[Aib]DGTFISDYK([γGlu-Decanoyl])TILDKLAARDFIEWLIATKITK-OH
modifications: N-terminus assumed
SMILES: CCCCCCCCCC(=O)N[C@@H](CCC(=O)NCCCC[C@H](NC(=O)[C@H](Cc1ccc(O)cc1)NC(=O)[C@H](CC(=O)O)NC(=O)[C@H](CO)NC(=O)[C@@H](NC(=O)[C@H](Cc1ccccc1)NC(=O)[C@@H](NC(=O)CNC(=O)[C@H](CC(=O)O)NC(=O)C(C)(C)NC(=O)[C@@H](N)Cc1c[nH]cn1)[C@@H](C)O)[C@@H](C)CC)C(=O)N[C@H](C(=O)N[C@H](C(=O)N[C@@H](CC(C)C)C(=O)N[C@@H](CC(=O)O)C(=O)N[C@@H](CCCCN)C(=O)N[C@@H](CC(C)C)C(=O)N[C@@H](C)C(=O)N[C@@H](C)C(=O)N[C@@H](CCCNC(=N)N)C(=O)N[C@@H](CC(=O)O)C(=O)N[C@@H](Cc1ccccc1)C(=O)N[C@H](C(=O)N[C@@H](CCC(=O)O)C(=O)N[C@@H](Cc1c[nH]c2ccccc12)C(=O)N[C@@H](CC(C)C)C(=O)N[C@H](C(=O)N[C@@H](C)C(=O)N[C@H](C(=O)N[C@@H](CCCCN)C(=O)N[C@H](C(=O)N[C@H](C(=O)N[C@@H](CCCCN)C(=O)O)[C@@H](C)O)[C@@H](C)CC)[C@@H](C)O)[C@@H](C)CC)[C@@H](C)CC)[C@@H](C)CC)[C@@H](C)O)C(=O)O
B3: Compound no. 8 (peptide)
peptide: Palmitoyl-H[Aib]DGTFISDYSTILDNLAARDFIEWLIQTKIT-OH
SMILES: CCCCCCCCCCCCCCCC(=O)N[C@@H](Cc1c[nH]cn1)C(=O)NC(C)(C)C(=O)N[C@@H](CC(=O)O)C(=O)NCC(=O)N[C@H](C(=O)N[C@@H](Cc1ccccc1)C(=O)N[C@H](C(=O)N[C@@H](CO)C(=O)N[C@@H](CC(=O)O)C(=O)N[C@@H](Cc1ccc(O)cc1)C(=O)N[C@@H](CO)C(=O)N[C@H](C(=O)N[C@H](C(=O)N[C@@H](CC(C)C)C(=O)N[C@@H](CC(=O)O)C(=O)N[C@@H](CC(N)=O)C(=O)N[C@@H](CC(C)C)C(=O)N[C@@H](C)C(=O)N[C@@H](C)C(=O)N[C@@H](CCCNC(=N)N)C(=O)N[C@@H](CC(=O)O)C(=O)N[C@@H](Cc1ccccc1)C(=O)N[C@H](C(=O)N[C@@H](CCC(=O)O)C(=O)N[C@@H](Cc1c[nH]c2ccccc12)C(=O)N[C@@H](CC(C)C)C(=O)N[C@H](C(=O)N[C@@H](CCC(N)=O)C(=O)N[C@H](C(=O)N[C@@H](CCCCN)C(=O)N[C@H](C(=O)N[C@H](C(=O)O)[C@@H](C)O)[C@@H](C)CC)[C@@H](C)O)[C@@H](C)CC)[C@@H](C)CC)[C@@H](C)CC)[C@@H](C)O)[C@@H](C)CC)[C@@H](C)O
B4: Compound no. 7 (peptide)
peptide: Palmitoyl-H[Aib]DGTFISDYSTILDNLAARDFIEWLIQTKITK-OH
SMILES: CCCCCCCCCCCCCCCC(=O)N[C@@H](Cc1c[nH]cn1)C(=O)NC(C)(C)C(=O)N[C@@H](CC(=O)O)C(=O)NCC(=O)N[C@H](C(=O)N[C@@H](Cc1ccccc1)C(=O)N[C@H](C(=O)N[C@@H](CO)C(=O)N[C@@H](CC(=O)O)C(=O)N[C@@H](Cc1ccc(O)cc1)C(=O)N[C@@H](CO)C(=O)N[C@H](C(=O)N[C@H](C(=O)N[C@@H](CC(C)C)C(=O)N[C@@H](CC(=O)O)C(=O)N[C@@H](CC(N)=O)C(=O)N[C@@H](CC(C)C)C(=O)N[C@@H](C)C(=O)N[C@@H](C)C(=O)N[C@@H](CCCNC(=N)N)C(=O)N[C@@H](CC(=O)O)C(=O)N[C@@H](Cc1ccccc1)C(=O)N[C@H](C(=O)N[C@@H](CCC(=O)O)C(=O)N[C@@H](Cc1c[nH]c2ccccc12)C(=O)N[C@@H](CC(C)C)C(=O)N[C@H](C(=O)N[C@@H](CCC(N)=O)C(=O)N[C@H](C(=O)N[C@@H](CCCCN)C(=O)N[C@H](C(=O)N[C@H](C(=O)N[C@@H](CCCCN)C(=O)O)[C@@H](C)O)[C@@H](C)CC)[C@@H](C)O)[C@@H](C)CC)[C@@H](C)CC)[C@@H](C)CC)[C@@H](C)O)[C@@H](C)CC)[C@@H](C)O
B5: Compound no. 5 (peptide)
peptide: Palmitoyl-H[Aib]DGTFISDYST[Aib]LDNLAARDFINWLIQTKITK-OH
SMILES: CCCCCCCCCCCCCCCC(=O)N[C@@H](Cc1c[nH]cn1)C(=O)NC(C)(C)C(=O)N[C@@H](CC(=O)O)C(=O)NCC(=O)N[C@H](C(=O)N[C@@H](Cc1ccccc1)C(=O)N[C@H](C(=O)N[C@@H](CO)C(=O)N[C@@H](CC(=O)O)C(=O)N[C@@H](Cc1ccc(O)cc1)C(=O)N[C@@H](CO)C(=O)N[C@H](C(=O)NC(C)(C)C(=O)N[C@@H](CC(C)C)C(=O)N[C@@H](CC(=O)O)C(=O)N[C@@H](CC(N)=O)C(=O)N[C@@H](CC(C)C)C(=O)N[C@@H](C)C(=O)N[C@@H](C)C(=O)N[C@@H](CCCNC(=N)N)C(=O)N[C@@H](CC(=O)O)C(=O)N[C@@H](Cc1ccccc1)C(=O)N[C@H](C(=O)N[C@@H](CC(N)=O)C(=O)N[C@@H](Cc1c[nH]c2ccccc12)C(=O)N[C@@H](CC(C)C)C(=O)N[C@H](C(=O)N[C@@H](CCC(N)=O)C(=O)N[C@H](C(=O)N[C@@H](CCCCN)C(=O)N[C@H](C(=O)N[C@H](C(=O)N[C@@H](CCCCN)C(=O)O)[C@@H](C)O)[C@@H](C)CC)[C@@H](C)O)[C@@H](C)CC)[C@@H](C)CC)[C@@H](C)O)[C@@H](C)CC)[C@@H](C)O
B6: Compound no. 44 (peptide)
peptide: Decanoyl-H[Aib]DGTFISDYST[Aib]LDNLAARDFINWLIQTKITK-OH
SMILES: CCCCCCCCCC(=O)N[C@@H](Cc1c[nH]cn1)C(=O)NC(C)(C)C(=O)N[C@@H](CC(=O)O)C(=O)NCC(=O)N[C@H](C(=O)N[C@@H](Cc1ccccc1)C(=O)N[C@H](C(=O)N[C@@H](CO)C(=O)N[C@@H](CC(=O)O)C(=O)N[C@@H](Cc1ccc(O)cc1)C(=O)N[C@@H](CO)C(=O)N[C@H](C(=O)NC(C)(C)C(=O)N[C@@H](CC(C)C)C(=O)N[C@@H](CC(=O)O)C(=O)N[C@@H](CC(N)=O)C(=O)N[C@@H](CC(C)C)C(=O)N[C@@H](C)C(=O)N[C@@H](C)C(=O)N[C@@H](CCCNC(=N)N)C(=O)N[C@@H](CC(=O)O)C(=O)N[C@@H](Cc1ccccc1)C(=O)N[C@H](C(=O)N[C@@H](CC(N)=O)C(=O)N[C@@H](Cc1c[nH]c2ccccc12)C(=O)N[C@@H](CC(C)C)C(=O)N[C@H](C(=O)N[C@@H](CCC(N)=O)C(=O)N[C@H](C(=O)N[C@@H](CCCCN)C(=O)N[C@H](C(=O)N[C@H](C(=O)N[C@@H](CCCCN)C(=O)O)[C@@H](C)O)[C@@H](C)CC)[C@@H](C)O)[C@@H](C)CC)[C@@H](C)CC)[C@@H](C)O)[C@@H](C)CC)[C@@H](C)O
B7: Compound no. 10 (peptide)
peptide: H[Aib]DGTFK([γGlu-Palmitoyl])SDYSTILDNLAARDFINWLIQTKITK-OH
modifications: N-terminus assumed
SMILES: CCCCCCCCCCCCCCCC(=O)N[C@@H](CCC(=O)NCCCC[C@H](NC(=O)[C@H](Cc1ccccc1)NC(=O)[C@@H](NC(=O)CNC(=O)[C@H](CC(=O)O)NC(=O)C(C)(C)NC(=O)[C@@H](N)Cc1c[nH]cn1)[C@@H](C)O)C(=O)N[C@@H](CO)C(=O)N[C@@H](CC(=O)O)C(=O)N[C@@H](Cc1ccc(O)cc1)C(=O)N[C@@H](CO)C(=O)N[C@H](C(=O)N[C@H](C(=O)N[C@@H](CC(C)C)C(=O)N[C@@H](CC(=O)O)C(=O)N[C@@H](CC(N)=O)C(=O)N[C@@H](CC(C)C)C(=O)N[C@@H](C)C(=O)N[C@@H](C)C(=O)N[C@@H](CCCNC(=N)N)C(=O)N[C@@H](CC(=O)O)C(=O)N[C@@H](Cc1ccccc1)C(=O)N[C@H](C(=O)N[C@@H](CC(N)=O)C(=O)N[C@@H](Cc1c[nH]c2ccccc12)C(=O)N[C@@H](CC(C)C)C(=O)N[C@H](C(=O)N[C@@H](CCC(N)=O)C(=O)N[C@H](C(=O)N[C@@H](CCCCN)C(=O)N[C@H](C(=O)N[C@H](C(=O)N[C@@H](CCCCN)C(=O)O)[C@@H](C)O)[C@@H](C)CC)[C@@H](C)O)[C@@H](C)CC)[C@@H](C)CC)[C@@H](C)CC)[C@@H](C)O)C(=O)O

What follows are binders tested against human GLP-1R (GLP-1 receptor) (human, UniProt P43220 24-463) (assay: cell-based or functional assay).

cAMP assay: EC50 (nM) GLP-1R [nM] | cAMP assay: Efficacy GLP-1R [%] | cAMP assay: logEC50 GLP-1R | Binder
39.8 | 34 | 7.4 | B1
39.8 | 6 | 7.4 | B2
10 | 19 | 8 | B3
39.8 | 13 | 7.4 | B4
 | 6 |  | B5
 | 19 |  | B6
100 | 10 | 7 | B7
 | 11 |  | HXDGTFISDYKTILDNLAARDFINWLIQTKITK (Aib at 2; K(γGlu-C16) at 11; C-terminus -OH) [Compound no. 11]

Reference: US20250304643A1 (BAINAN BIOTECH, published 2025)
